In publication PMC7274780:

Target: Salmonella typhimurium oxaloacetate decarboxylase sodium pump (StOAD) β subunit (Salmonella typhimurium) (UniProt Q03031)
Assay: cryo-EM structure; purified StOAD βγ sub-complex in 20 mM Tris pH 7.5, 100 mM sodium chloride, 2 mM DTT, 0.02% DDM; C3 symmetry imposed; 3.88 Å

- stoichiometry N: 3
Substance: Salmonella typhimurium oxaloacetate decarboxylase sodium pump (StOAD) β subunit (from UniProt Q03031 1-433) (natural protein)
